From paper PMC12287439 (Nature Communications, 2025)
Where a chain is given by its changes, count along the chain named. Names may count otherwise.

T1: LYCHOS (Homo sapiens, UniProt Q7Z3F1, Y57A)
T1 sequence (Q7Z3F1 1-870 Y57A): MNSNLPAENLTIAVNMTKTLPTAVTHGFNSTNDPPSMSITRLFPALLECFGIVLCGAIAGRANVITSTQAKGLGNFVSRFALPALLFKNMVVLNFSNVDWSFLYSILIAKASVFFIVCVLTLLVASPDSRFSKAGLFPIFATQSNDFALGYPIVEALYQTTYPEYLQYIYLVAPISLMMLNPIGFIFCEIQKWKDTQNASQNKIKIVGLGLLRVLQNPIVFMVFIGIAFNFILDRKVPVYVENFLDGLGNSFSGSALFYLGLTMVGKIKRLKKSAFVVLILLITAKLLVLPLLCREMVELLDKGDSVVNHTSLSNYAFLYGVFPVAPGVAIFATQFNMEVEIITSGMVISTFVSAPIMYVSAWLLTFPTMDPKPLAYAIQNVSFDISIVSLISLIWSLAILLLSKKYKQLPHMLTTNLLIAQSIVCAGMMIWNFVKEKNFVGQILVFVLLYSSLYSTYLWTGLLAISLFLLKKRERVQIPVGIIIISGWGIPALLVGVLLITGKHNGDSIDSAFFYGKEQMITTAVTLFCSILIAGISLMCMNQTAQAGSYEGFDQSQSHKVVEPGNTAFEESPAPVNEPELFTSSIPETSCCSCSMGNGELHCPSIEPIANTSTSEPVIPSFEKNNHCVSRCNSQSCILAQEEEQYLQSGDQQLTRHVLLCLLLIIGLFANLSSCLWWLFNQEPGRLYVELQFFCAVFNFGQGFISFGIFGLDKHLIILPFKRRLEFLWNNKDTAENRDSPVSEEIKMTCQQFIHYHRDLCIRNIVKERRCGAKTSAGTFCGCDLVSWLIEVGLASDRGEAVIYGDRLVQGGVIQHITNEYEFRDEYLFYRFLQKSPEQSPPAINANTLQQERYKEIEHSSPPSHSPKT

B1: human LYCHOS, wild type (lysosomal cholesterol signaling protein) (natural protein, UniProt Q7Z3F1 1-870, looked up)
chain: T1 sequence (Q7Z3F1 1-870 Y57A) with A57Y
B2: human LYCHOS Y57A (natural protein, UniProt Q7Z3F1 1-870, looked up)
chain: T1 sequence (Q7Z3F1 1-870 Y57A)
B3: LYCHOSPLD (permease-like domain of human LYCHOS) (domain or fragment)
chain: MNSNLPAENLTIAVNMTKTLPTAVTHGFNSTNDPPSMSITRLFPALLECFGIVLCGYIAGRANVITSTQAKGLGNFVSRFALPALLFKNMVVLNFSNVDWSFLYSILIAKASVFFIVCVLTLLVASPDSRFSKAGLFPIFATQSNDFALGYPIVEALYQTTYPEYLQYIYLVAPISLMMLNPIGFIFCEIQKWKDTQNASQNKIKIVGLGLLRVLQNPIVFMVFIGIAFNFILDRKVPVYVENFLDGLGNSFSGSALFYLGLTMVGKIKRLKKSAFVVLILLITAKLLVLPLLCREMVELLDKGDSVVNHTSLSNYAFLYGVFPVAPGVAIFATQFNMEVEIITSGMVISTFVSAPIMYVSAWLLTFPTM

Columns and labels:
LYCHOS [1] = molecular target: LYCHOS (Homo sapiens, UniProt Q7Z3F1); experiment: BRET recruitment of GATOR1; type: cell-based
LYCHOS [2] = molecular target: T1, LYCHOS; experiment: cryo-EM structure; type: binding
cryo-EM structure = molecular target: the molecule itself; experiment: cryo-EM structure

LYCHOS (Homo sapiens, UniProt Q7Z3F1), sequence (Q7Z3F1 whole entry): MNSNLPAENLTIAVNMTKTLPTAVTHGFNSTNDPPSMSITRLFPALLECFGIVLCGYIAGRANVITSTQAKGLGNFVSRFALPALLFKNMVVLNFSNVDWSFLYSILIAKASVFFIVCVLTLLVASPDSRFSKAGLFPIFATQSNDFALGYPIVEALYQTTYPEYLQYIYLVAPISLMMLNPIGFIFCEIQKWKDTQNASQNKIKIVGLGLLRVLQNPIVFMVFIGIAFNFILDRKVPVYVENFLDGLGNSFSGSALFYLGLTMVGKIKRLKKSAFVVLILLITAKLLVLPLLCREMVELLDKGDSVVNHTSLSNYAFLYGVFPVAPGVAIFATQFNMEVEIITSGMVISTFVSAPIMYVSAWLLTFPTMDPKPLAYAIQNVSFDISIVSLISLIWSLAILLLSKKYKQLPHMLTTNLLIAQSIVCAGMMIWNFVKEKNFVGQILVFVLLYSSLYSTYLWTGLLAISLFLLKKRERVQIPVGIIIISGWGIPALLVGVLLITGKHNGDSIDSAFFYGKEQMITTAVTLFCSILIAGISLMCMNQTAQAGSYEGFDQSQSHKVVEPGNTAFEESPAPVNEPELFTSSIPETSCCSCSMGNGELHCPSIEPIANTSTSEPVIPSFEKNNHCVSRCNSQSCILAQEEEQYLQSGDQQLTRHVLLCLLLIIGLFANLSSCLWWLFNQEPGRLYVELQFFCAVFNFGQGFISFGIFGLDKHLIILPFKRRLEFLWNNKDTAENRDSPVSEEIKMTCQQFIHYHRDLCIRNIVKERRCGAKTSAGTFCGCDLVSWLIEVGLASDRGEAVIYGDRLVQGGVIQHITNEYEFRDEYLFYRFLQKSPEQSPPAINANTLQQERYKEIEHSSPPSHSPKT
LYCHOS (Homo sapiens, UniProt Q7Z3F1), sequence (Q8WTW4 whole entry partner): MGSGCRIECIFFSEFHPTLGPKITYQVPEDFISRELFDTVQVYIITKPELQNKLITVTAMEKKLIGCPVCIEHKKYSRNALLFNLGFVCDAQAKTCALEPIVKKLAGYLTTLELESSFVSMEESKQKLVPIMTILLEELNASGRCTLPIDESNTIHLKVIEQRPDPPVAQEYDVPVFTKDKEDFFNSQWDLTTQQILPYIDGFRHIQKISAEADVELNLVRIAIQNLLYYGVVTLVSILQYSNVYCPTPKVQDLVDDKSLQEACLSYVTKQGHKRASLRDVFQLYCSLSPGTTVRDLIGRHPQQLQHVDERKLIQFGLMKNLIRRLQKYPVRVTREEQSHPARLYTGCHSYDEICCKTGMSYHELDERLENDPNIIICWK
LYCHOS (Homo sapiens, UniProt Q7Z3F1), sequence (Q12980 whole entry partner): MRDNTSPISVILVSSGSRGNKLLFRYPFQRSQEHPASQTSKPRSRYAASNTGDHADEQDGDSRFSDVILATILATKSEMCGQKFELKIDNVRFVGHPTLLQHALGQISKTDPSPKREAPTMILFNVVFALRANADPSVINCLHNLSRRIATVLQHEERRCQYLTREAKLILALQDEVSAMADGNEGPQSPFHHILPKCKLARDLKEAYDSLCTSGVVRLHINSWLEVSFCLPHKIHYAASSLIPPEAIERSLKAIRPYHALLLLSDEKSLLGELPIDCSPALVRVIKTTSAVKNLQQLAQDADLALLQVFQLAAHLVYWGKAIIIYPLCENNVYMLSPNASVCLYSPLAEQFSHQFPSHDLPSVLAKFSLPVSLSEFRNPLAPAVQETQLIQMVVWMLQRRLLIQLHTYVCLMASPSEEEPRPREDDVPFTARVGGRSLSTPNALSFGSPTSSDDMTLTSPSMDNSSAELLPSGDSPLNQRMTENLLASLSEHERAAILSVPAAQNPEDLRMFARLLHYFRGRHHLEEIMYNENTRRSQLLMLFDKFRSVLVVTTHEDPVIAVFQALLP
LYCHOS (Homo sapiens, UniProt Q7Z3F1), sequence (O75140 whole entry partner): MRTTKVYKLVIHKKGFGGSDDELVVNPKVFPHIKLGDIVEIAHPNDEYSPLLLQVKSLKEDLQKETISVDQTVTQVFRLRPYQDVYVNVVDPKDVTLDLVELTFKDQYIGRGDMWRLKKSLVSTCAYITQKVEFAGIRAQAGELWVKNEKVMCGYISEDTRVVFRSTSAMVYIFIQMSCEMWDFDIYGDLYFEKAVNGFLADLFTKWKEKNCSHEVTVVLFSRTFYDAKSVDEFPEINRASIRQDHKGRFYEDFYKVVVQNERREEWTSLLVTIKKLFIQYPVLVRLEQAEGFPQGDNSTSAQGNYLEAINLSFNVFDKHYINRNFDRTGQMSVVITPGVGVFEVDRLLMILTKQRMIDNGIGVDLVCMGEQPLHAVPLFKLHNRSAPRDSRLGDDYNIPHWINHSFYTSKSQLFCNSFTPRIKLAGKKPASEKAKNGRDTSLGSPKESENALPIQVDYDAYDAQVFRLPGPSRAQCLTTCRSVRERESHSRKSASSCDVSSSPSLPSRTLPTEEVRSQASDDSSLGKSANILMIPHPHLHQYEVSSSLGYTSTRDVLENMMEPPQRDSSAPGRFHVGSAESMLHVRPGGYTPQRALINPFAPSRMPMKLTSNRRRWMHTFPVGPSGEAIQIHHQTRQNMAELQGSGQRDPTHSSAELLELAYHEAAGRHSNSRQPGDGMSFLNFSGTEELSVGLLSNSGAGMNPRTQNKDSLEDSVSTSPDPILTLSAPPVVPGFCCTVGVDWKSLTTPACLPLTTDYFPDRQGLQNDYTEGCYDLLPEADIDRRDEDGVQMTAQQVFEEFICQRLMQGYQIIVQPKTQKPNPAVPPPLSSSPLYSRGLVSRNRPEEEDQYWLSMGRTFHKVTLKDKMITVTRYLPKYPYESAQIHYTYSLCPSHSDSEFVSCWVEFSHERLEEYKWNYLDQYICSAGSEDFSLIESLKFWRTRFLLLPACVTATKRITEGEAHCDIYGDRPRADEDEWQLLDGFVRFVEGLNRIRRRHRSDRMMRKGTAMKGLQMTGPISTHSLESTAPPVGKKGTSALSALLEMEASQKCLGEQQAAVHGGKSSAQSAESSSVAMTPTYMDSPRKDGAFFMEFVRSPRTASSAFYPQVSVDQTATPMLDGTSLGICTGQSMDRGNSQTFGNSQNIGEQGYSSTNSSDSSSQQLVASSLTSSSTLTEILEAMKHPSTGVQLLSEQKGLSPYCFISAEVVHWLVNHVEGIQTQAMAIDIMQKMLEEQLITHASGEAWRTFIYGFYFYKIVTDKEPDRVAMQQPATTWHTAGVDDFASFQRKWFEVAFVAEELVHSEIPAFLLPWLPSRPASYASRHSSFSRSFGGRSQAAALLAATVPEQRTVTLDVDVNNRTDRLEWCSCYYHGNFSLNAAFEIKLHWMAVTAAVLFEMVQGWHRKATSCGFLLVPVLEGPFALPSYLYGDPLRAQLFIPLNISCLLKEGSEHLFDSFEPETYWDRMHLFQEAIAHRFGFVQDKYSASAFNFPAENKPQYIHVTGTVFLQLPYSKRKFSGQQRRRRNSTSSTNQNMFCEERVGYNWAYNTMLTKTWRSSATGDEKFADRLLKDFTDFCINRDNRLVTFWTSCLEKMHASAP

Row | Molecule | stoichiometry N (cryo-EM structure) | other results
1 | CC(C)CCC[C@@H](C)[C@H]1CC[C@H]2[C@@H]3CC=C4C[C@@H](O)CC[C@]4(C)[C@H]3CC[C@]12C [cholesterol] |  | EC50 (LYCHOS [1]): 165 nM
2 | CC(C)CCC[C@@H](C)[C@H]1CC[C@H]2[C@@H]3CC=C4C[C@@H](OC(=O)CCC(=O)O)CC[C@]4(C)[C@H]3CC[C@]12C [CHS, cholesteryl hemisuccinate] |  | cryo-EM structure (3.21 Å, contracted state) (LYCHOS [2]): We found there exist two CHS molecules in the CBC, with which GLD is locked in contracted state
3 | B1 | 2 | 
4 | B2 | 2 | 
5 | B3 | 2 | 
